In US8889130B2, “Treatment of osteoarthritis and pain” (Abbvie Inc., priority 2011, dated 2014):
Blank lines part the entries; values can stand above or below the molecule they belong to.

Assays:
hIL-1β [1] = target: T1, hIL-1β (Homo sapiens, UniProt P01584); test: Surface plasmon resonance (Biacore) binding kinetics and affinity to hIL-1β; conditions: for koff / kon / Kd / Stoichiometry: antigen hIL-1β; for Kd: KD=koff/kon; for Stoichiometry: saturating binding conditions
Protocol: The kinetics of DVD-Ig molecules binding to rhIL1-α and rhIL1-β was determined by surface plasmon resonance-based measurements with a Biacore 3000 instrument (Biacore AB, Uppsala, Sweden) using HBS-EP (10 mM HEPES, pH 7.4, 150 mM NaCl, 3 mM EDTA, and 0.005% surfactant P20) at 25° C. All chemicals were obtained from Biacore AB (Uppsala, Sweden) or otherwise from a different source as described herein. Approximately, 5000 RU of goat anti-human IgG Fcγ fragment specific polyclonal antibody (Pierce Biotechnology Inc, Rockford, Ill.) diluted in 10 mM sodium acetate (pH 4.5) was directly immobilized across a CM5 research grade biosensor chip using a standard amine coupling kit according to manufacturer's instructions and procedures at […]. Unreacted moieties on the biosensor surface were blocked with ethanolamine. Modified carboxymethyl dextran surface in flowcell 2 and 4 was used as a reaction surface. Unmodified carboxymethyl dextran without goat anti-human IgG in flow cell 1 and 3 was used as the reference surface. For kinetic analysis, rate equations derived from the 1:1 Langmuir binding model were fitted simultaneously to association and dissociation phases of all ten injections (using global fit analysis) using the Bioevaluation 4.0.1 software. Purified DVD-Ig samples were diluted in HEPES-buffered saline for capture across goat anti-human IgG Fc specific reaction surfaces and injected over reaction matrices at a flow rate of […]. The association and dissociation rate constants, kon (M-1s-1) and koff (s-1) were determined under a continuous flow rate of […]. Rate constants were derived by making kinetic binding measurements at ten different antigen concentrations ranging from 1.25 to 1000 nM. The equilibrium dissociation constant (M) of the reaction between DVD-Ig molecule and rhIL1α/β was then calculated from the kinetic rate constants by the following formula: KD=koff/kon. Aliquots of rhIL1α/β samples were also simultaneously injected over a blank reference and reaction CM surface to record and subtract any nonspecific binding background to eliminate the majority of the refractive index change and injection noise. Surfaces were regenerated with two subsequent […] injections of 10 mM Glycine (pH 1.5) at a flow rate of […]. The anti-Fc antibody immobilized surfaces were completely regenerated and retained their full capture capacity over twelve cycles. The apparent stoichiometry of the captured DVD-Ig-rhIL1α/β complex was calculated under saturating binding conditions (steady-state equilibrium) using the following formula: […]

hIL-1α = target: T2, hIL-1α (Homo sapiens, UniProt P01583); test: MRC-5 bioassay: neutralization of hIL-1α-induced IL-8 production; assay type: cell-based; conditions: for IC50: antigen hIL-1α, read-out: Potency IC50
T2 sequence (P01583 113-271): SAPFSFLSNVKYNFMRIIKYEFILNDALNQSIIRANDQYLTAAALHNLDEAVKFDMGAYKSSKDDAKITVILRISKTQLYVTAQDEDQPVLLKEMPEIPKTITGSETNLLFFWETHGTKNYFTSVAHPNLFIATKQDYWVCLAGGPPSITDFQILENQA
Protocol: (§1) The MRC-5 cell line is a human lung fibroblast cell line that produces IL-8 in response to human IL-1α and IL-1β in a dose-dependent manner (see, Dinarello, Muegge, and Durum (2000) Curr. Protocols Immunol. 6:1). MRC-5 cells were cultured in 10% FBS complete MEM and grown at 37° C. in a 5% CO2 incubator. […] The supernatants were harvested, diluted, and IL-8 concentrations measured by ELISA using a standard IL-8 ELISA kit (R&D Systems). Antibody potency was determined by its ability to inhibit IL-8 production by MRC-5 cells.
(§2) The biological activity of DVD-Ig was measured using MRC-5 bioassay. The MRC-5 cell line is a human lung fibroblast cell line that produces IL-8 in response to human IL-1α and IL-1β in a dose-dependent manner. MRC-5 cells were obtained from ATCC and cultured in 10% FBS complete MEM at 37° C. in a 5% CO2 incubator. To determine neutralizing activity of the DVD-Ig against human IL-1α or IL-1β, 50 μl of antibody (1×10^−7 to 1×10^−12 M) in MEM/10% FBS was added to a 96 well plate and pre-incubated with 50 μl of hIL-1α or hIL-1β (200 pg/ml) for 1 hour at 37° C., 5% CO2. MRC-5 cells at a concentration of 1×10^5/ml were then added (100 μl) to all wells, and the plates were incubated overnight at 37° C. in a 5% CO2 incubator. The supernatants were harvested and human IL-8 production measured by standard ELISA (R&D Systems, Minneapolis, Minn.). Neutralizing activity of the DVD-Ig binding protein was determined by its ability to inhibit IL-8 production.

hIL-1β [2] = target: T1, hIL-1β; test: MRC-5 bioassay: neutralization of hIL-1β-induced IL-8 production; assay type: cell-based
Protocol: as §1
as §2, with “MRC-5 cells at a concentration of 1×10^5/ml were then added (100 μl) to all wells, and the plates were incubated overnight at 37° C. in a 5% CO2 incubator.” left out

both IL-1α and IL-1β = test: MRC-5 assay in the presence of both IL-1α and IL-1β (IL-8 synthesis); assay type: cell-based, human; conditions: equal amounts of hIL-1α and hIL-1β in the same culture; read-out: dual-inhibition activity (IL-8 synthesis by MRC-5 cells)
Protocol: as §2
To determine if DVD-Ig binding protein was able to inhibit IL-8 production in the presence of both IL-1α and IL-1β, equal amounts of hIL-1α and hIL-1β were added in the same culture system of MRC-5 assay. […]

T1 sequence (P01584 117-269): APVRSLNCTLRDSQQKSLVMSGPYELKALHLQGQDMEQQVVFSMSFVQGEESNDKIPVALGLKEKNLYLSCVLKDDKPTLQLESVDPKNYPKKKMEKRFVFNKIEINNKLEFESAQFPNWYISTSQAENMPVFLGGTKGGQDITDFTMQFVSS

koff (hIL-1β [1]): 0.00159 s⁻¹ | kon (hIL-1β [1]): 609000 M⁻¹ s⁻¹ | Kd (hIL-1β [1]): 2.6 nM | Stoichiometry (hIL-1β [1]): 1.5 | neutralizing activity against hIL-1α, fold less than that of the chimeric antibodies (hIL-1α): 3 fold | IC50 (hIL-1α): 2.3 nM | IC50 (hIL-1β [2]; antigen hIL-1β, read-out: Potency IC50): 3.1 nM
B1: DVD1-Ig: DVD-Ig binding hIL-1α and hIL-1β; VH/VL of 13F5.G5 fused directly to N-terminus of 3D12.E3 VH/VL, no linker (antibody)
VH: MQLSGLTSEDSAMYFCVRFPTGNDYYAMDYWGQGTSVTVSSQIQLVQSGPELKKPGETVKISCKASGYTFRNYGMNWVKQAPGKDLKRMAWINTYTGESTYADDFKGRFAFSLETSASTAYLQINNLKNEDTATYFCARGIYYYGSSYAMDYWGQGTSVTVSS
VL: PVEADDAATYYCQQNNEDPFTFGSGTKLEIKRNIQMTQTTSSLSASLGDRVTISCRASQDISNCLNWYQQKPDGTVKLLIYYTSRLHSGVPSRFSGSGSGTDYSLTISNLEQEDIATYFCQQGKTLPYAFGGGTKLEINRR
IC50 (both IL-1α and IL-1β): 2.2 nM

binding affinity to hIL-1β, fold higher than that of DVD1-Ig (hIL-1β [1]): 3 fold | koff (hIL-1β [1]): 0.00095 s⁻¹ | kon (hIL-1β [1]): 1.19e+06 M⁻¹ s⁻¹ | Kd (hIL-1β [1]): 0.798 nM | Stoichiometry (hIL-1β [1]): 1.8 | neutralizing activity against hIL-1α, fold less than that of the chimeric antibodies (hIL-1α): 3 fold | IC50 (hIL-1α): 2.9 nM | neutralizing activity to hIL-1β, fold higher than that of DVD1-Ig (hIL-1β [2]): 3 fold
B2: DVD2-Ig: DVD-Ig as DVD1-Ig but with linkers ADAAP (light chain) and AKTTPP (heavy chain) (antibody)
VH: MQLSGLTSEDSAMYFCVRFPTGNDYYAMDYWGQGTSVTVSSAKTTPPQIQLVQSGPELKKPGETVKISCKASGYTFRNYGMNWVKQAPGKDLKRMAWINTYTGESTYADDFKGRFAFSLETSASTAYLQINNLKNEDTATYFCARGIYYYGSSYAMDYWGQGTSVTVSS
VL: PVEADDAATYYCQQNNEDPFTFGSGTKLEIKRADAAPNIQMTQTTSSLSASLGDRVTISCRASQDISNCLNWYQQKPDGTVKLLIYYTSRLHSGVPSRFSGSGSGTDYSLTISNLEQEDIATYFCQQGKTLPYAFGGGTKLEINR
IC50 (both IL-1α and IL-1β): 1.2 nM
